Assay results: US20220119492A1 (MEDIKINE, published 2022)
Bridge positions count the residues as written; N and C are the ends. Ends that are not written are not given here.

T1: human IL-2Rβ (CD122 protein, Fc Tag) (27-239) (human, UniProt P14784 27-239)
T1 construct: range 27-239; Bought protein; also called hu-IL-2Rβ subunit; IL-2Rβ subunit; not shown: Fc tag of the bought protein
T1 sequence (looked up): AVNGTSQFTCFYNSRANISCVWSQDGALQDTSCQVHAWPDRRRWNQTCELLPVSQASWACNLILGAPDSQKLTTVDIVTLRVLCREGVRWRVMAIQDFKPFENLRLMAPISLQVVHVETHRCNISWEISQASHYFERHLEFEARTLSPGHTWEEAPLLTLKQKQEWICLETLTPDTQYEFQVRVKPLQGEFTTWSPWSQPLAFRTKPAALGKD

B1: SEQ ID NO 2743 (peptide)
peptide: IERAWEWRPCWLASVGELCDLE
modifications: disulfide 10-19 (inferred)
B2: SEQ ID NO 2744 (peptide)
peptide: VASERFYPCWIARLGELCDVE
B3: SEQ ID NO 2746 (peptide)
peptide: WYPCWLAHLGELCDLDWKGRND
B4: SEQ ID NO 2747 (peptide)
peptide: WYPCWRAQLGELCDLVDLGSHL
B5: SEQ ID NO 2748 (peptide)
peptide: WSPCWMASLGDLCDLEETRQTE
modifications: disulfide 4-13 (inferred)
B6: SEQ ID NO 2749 (peptide)
peptide: WTPCWIAQLGELCDLEGRHGTV
B7: SEQ ID NO 2750 (peptide)
peptide: LPCWIAQLGDLCDLEPEPSPE
B8: SEQ ID NO 2751 (peptide)
peptide: FYPCWAAHLGDLCDLEYQEAGP
B9: SEQ ID NO 2752 (peptide)
peptide: WLPCWLAPLGDLCDMDMSAVMN
B10: SEQ ID NO 2753 (peptide)
peptide: WRPCWMAHLGDLCDLEMANENP
B11: SEQ ID NO 2754 (peptide)
peptide: WYPCWLAQLGEVCDLDDGGGVF
B12: SEQ ID NO 2755 (peptide)
peptide: WWPCWLAQLGELCDLEVNGSLI
B13: SEQ ID NO 2756 (peptide)
peptide: TEMWYPCWMAYQGELCDLDMTY
B14: SEQ ID NO 2757 (peptide)
peptide: ARTWWPCWRAKLGELCDLVVPE
B15: SEQ ID NO 2758 (peptide)
peptide: HQGFYSCRLARLGELCDLDTGW
B16: SEQ ID NO 2759 (peptide)
peptide: VDEFYPCSMAGLGELCDLERQN
B17: SEQ ID NO 2760 (peptide)
peptide: AWDWYPCSVAALGEICDLDIQD
B18: SEQ ID NO 2761 (peptide)
peptide: RPPWYPCWMARLGEVCDMDIML
B19: SEQ ID NO 2762 (peptide)
peptide: SQRWYPCWVAHLGELCDLEGVV
B20: SEQ ID NO 2763 (peptide)
peptide: KGSWQPCWFAKLGELCDLHPTS
B21: SEQ ID NO 2764 (peptide)
peptide: QTWYLPCWMAKLGELCDLGERD
B22: SEQ ID NO 2765 (peptide)
peptide: EPRWYPCWMAQMGELCDMEMSD
modifications: disulfide 7-16 (inferred)
B23: SEQ ID NO 2766 (peptide)
peptide: WGGRYWCWMAKLGDLCDLEDEW
B24: SEQ ID NO 2767 (peptide)
peptide: WWPCWIAQVGELCDLDGPGRPT
B25: SEQ ID NO 2768 (peptide)
peptide: RLVYDCLFAQVGDLCEVIS
B26: SEQ ID NO 2769 (peptide)
peptide: WRILWMQQCWRSHVVNQCAL
B27: SEQ ID NO 2770 (peptide)
peptide: WYPCWIAQVGELCDLDEVSHGR
B28: SEQ ID NO 2771 (peptide)
peptide: TGEWWPCWVAEVGELCDLERGP
B29: SEQ ID NO 2772 (peptide)
peptide: ARTQGWYDCLFAQVGELCDL
B30: SEQ ID NO 2773 (peptide)
peptide: FHPCWRALLGELCDLETALGPS
B31: SEQ ID NO 2774 (peptide)
peptide: LQIRKLWACRIDLVGPFCLL
modifications: disulfide 9-18 (inferred)
B32: SEQ ID NO 2775 (peptide)
peptide: AEYSGRYDCYIAKVGELCDI
B33: SEQ ID NO 2776 (peptide)
peptide: SWRFLWQDCGRAHVGELCDL
B34: SEQ ID NO 2777 (peptide)
peptide: NRWWHPCWMARVGELCDLEPDA
B35: SEQ ID NO 2778 (peptide)
peptide: WWPCWVAKLGELCDLEGDASRV
B36: SEQ ID NO 2779 (peptide)
peptide: WYPCEFAQLGELCDLLPFPYPA
B37: SEQ ID NO 2780 (peptide)
peptide: SYMHDCFMAQVGDLCDRFIS
modifications: disulfide 6-15 (inferred)
B38: SEQ ID NO 2827 (peptide)
peptide: CYMHDCFMAQVGDLCDRFIS
modifications: not fully specified (bridges); also: disulfide between two of the three cysteines, pairing not given here
B39: SEQ ID NO 2781 (peptide)
peptide: WWPCWIAQVGELCDLEEESRES
B40: SEQ ID NO 2782 (peptide)
peptide: KWAWNPCYIARLGELCDLVEPE
B41: SEQ ID NO 2783 (peptide)
peptide: WWPCWIADLGELCDLEGPPRGR
modifications: disulfide 4-13 (inferred)
B42: SEQ ID NO 2784 (peptide)
peptide: PTLITWYDCLFAEVGELCDM
B43: SEQ ID NO 2785 (peptide)
peptide: EISNWFLDCMFADVGDLCDL
B44: SEQ ID NO 2786 (peptide)
peptide: AQVWYPCWLAKVGELCDLDQWN
modifications: disulfide 7-16 (inferred)
B45: SEQ ID NO 2787 (peptide)
peptide: FGGKMDWYPCWIANLGELCDLK
B46: SEQ ID NO 2788 (peptide)
peptide: WFPCWMAKVGDLCDVDEHQDPS
B47: SEQ ID NO 2789 (peptide)
peptide: MGDSSSWFPCWMAQLGELCDME
B48: SEQ ID NO 2790 (peptide)
peptide: MFRYYPCWIASIGELCDLEWGV
modifications: disulfide 7-16 (inferred)
B49: SEQ ID NO 2791 (peptide)
peptide: ERRWYPCWLASVGELCDLDMGD
B50: SEQ ID NO 2792 (peptide)
peptide: WYPCWVAQLGELCDLE
B51: SEQ ID NO 2802 (peptide)
peptide: WYPCWVAKLGELCDLE
B52: SEQ ID NO 2793 (peptide)
peptide: RWDYWPCYIAQVGELCDLEVYE
B53: SEQ ID NO 2794 (peptide)
peptide: SLAHRSWYPCWLAQVGELCDLD
B54: SEQ ID NO 2795 (peptide)
peptide: QNASKGWYPCWIAHVGELCDWD
B55: SEQ ID NO 2796 (peptide)
peptide: HRWYPCWLAHLGELCDLDPMS
B56: SEQ ID NO 2797 (peptide)
peptide: FYPCWIAFVGELCDLE
B57: SEQ ID NO 2798 (peptide)
peptide: EGHWYPCWIAQLGELCDLDW
B58: SEQ ID NO 2799 (peptide)
peptide: WTGWSAFYPCSIANLGELCDLD
B59: SEQ ID NO 2800 (peptide)
peptide: WEKLQNWYPCWIAQMGELCDLE
B60: SEQ ID NO 2801 (peptide)
peptide: TNGVLDWWPCWMAQVGELCDLD
B61: SEQ ID NO 2803 (peptide)
peptide: AYYPCELAQLGELCDLYNI
B62: SEQ ID NO 2805 (peptide)
peptide: NDHTAWWPCYFAQVGDLCDLV

The binders below were run against T1, human IL-2Rβ (CD122 protein, Fc Tag) … (assay: phage ELISA competition).
Method in brief: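 Competitive binding ELISA in which a phage tracer competes with test ligands for human IL-2Rβ-Fc; IC50 is derived from the absorbance signal across the ligand dilution series. Without washing, 50 μL of phage tracer was added for 45 min at 4° C. Bound phage was detected with TMB for 1 to 15 min at 25° C, followed by stop solution and absorbance at 450 nm.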
For B1, the IC50 was less than 100 µM.
Binder B2 has an IC50 of less than 100 µM.
Work on B3 yielded an IC50 of less than 100 µM.
For B4, the IC50 was less than 100 µM.
B5 showed an IC50 of less than 100 µM.
B6 gave an IC50 of less than 100 µM.
B7 gave an IC50 of less than 100 µM.
B8 showed an IC50 of less than 100 µM.
With B9 the IC50 was less than 100 µM.
For B10, the IC50 was less than 100 µM.
In the case of B11, the IC50 is reported as less than 100 µM.
B12 gave an IC50 of less than 100 µM.
B13 gave an IC50 of less than 100 µM.
B14 was tested, and the IC50 was less than 100 µM.
B15 showed an IC50 of less than 100 µM.
In the case of B16, the IC50 is reported as less than 100 µM.
For B17, the IC50 was less than 100 µM.
In the case of B18, the IC50 is reported as less than 100 µM.
With B19 the IC50 was less than 100 µM.
Binder B20 has an IC50 of less than 100 µM.
For B21, the IC50 was less than 100 µM.
B22 gave an IC50 of less than 100 µM.
B23 was tested, and the IC50 was less than 100 µM.
B24 gave an IC50 of less than 100 µM.
Binder B25 has an IC50 of less than 100 µM.
In the case of B26, the IC50 is reported as less than 100 µM.
B27 showed an IC50 of less than 100 µM.
With B28 the IC50 was less than 100 µM.
For B29, the IC50 was less than 100 µM.
B30 was tested, and the IC50 was less than 100 µM.
Work on B31 yielded an IC50 of less than 100 µM.
For B32, the IC50 was less than 100 µM.
B33 showed an IC50 of less than 100 µM.
With B34 the IC50 was less than 100 µM.
B35 gave an IC50 of less than 100 µM.
Work on B36 yielded an IC50 of less than 100 µM.
In the case of B37, the IC50 is reported as less than 100 µM.
Work on B38 yielded an IC50 of less than 100 µM.
For B39, the IC50 was less than 100 µM.
B40 showed an IC50 of less than 100 µM.
B41 was tested, and the IC50 was less than 100 µM.
In the case of B42, the IC50 is reported as less than 100 µM.
For B43, the IC50 was less than 100 µM.
Binder B44 has an IC50 of less than 100 µM.
Work on B45 yielded an IC50 of less than 100 µM.
B46 was tested, and the IC50 was less than 100 µM.
Binder B47 has an IC50 of less than 100 µM.
Binder B48 has an IC50 of less than 100 µM.
In the case of B49, the IC50 is reported as less than 100 µM.
With B50 the IC50 was less than 100 µM.
Work on B51 yielded an IC50 of less than 100 µM.
B52 showed an IC50 of less than 100 µM.
With B53 the IC50 was less than 100 µM.
B54 showed an IC50 of less than 100 µM.
B55 gave an IC50 of less than 100 µM.
B56 showed an IC50 of less than 100 µM.
Work on B57 yielded an IC50 of less than 100 µM.
With B58 the IC50 was less than 100 µM.
Binder B59 has an IC50 of less than 100 µM.
B60 showed an IC50 of less than 100 µM.
B61 showed an IC50 of less than 100 µM.
In the case of B62, the IC50 is reported as less than 100 µM.
